The data set addresses T1, GST-ZC3H7B(415-956) (UniProt Q9UGR2 415-956).
T1 sequence: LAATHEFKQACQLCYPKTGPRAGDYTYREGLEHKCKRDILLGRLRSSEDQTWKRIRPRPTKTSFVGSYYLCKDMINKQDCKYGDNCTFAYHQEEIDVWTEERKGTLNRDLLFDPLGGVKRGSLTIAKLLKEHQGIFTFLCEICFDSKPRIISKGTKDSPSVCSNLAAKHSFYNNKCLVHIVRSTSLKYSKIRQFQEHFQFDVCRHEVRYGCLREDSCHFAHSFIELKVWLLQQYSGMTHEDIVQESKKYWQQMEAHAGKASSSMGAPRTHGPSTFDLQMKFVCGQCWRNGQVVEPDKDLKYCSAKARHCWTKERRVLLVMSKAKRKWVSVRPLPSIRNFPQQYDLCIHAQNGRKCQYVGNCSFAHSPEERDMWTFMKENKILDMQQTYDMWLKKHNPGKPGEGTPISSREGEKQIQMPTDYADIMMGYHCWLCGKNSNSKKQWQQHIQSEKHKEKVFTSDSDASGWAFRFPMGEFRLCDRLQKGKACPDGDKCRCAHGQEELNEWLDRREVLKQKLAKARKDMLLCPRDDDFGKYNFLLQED
The experiment in a line: filter binding; Filter binding: 50 mM Tris-HCl pH 8.0, 150 mM NaCl, 5% glycerol, 20 C; EMSA: 20 mM HEPES-KOH pH 7.4, 100 mM NaCl, 1 mM MgCl2, 0.1% Tween20, 40 mM EDTA, 10% glycerol, 70 C; competition: 25 mM Tris-HCl pH 7.5, 150 mM KCl, 3 mM MgCl2, 0.01% NP-40, 1 mg/ml BSA, 1 mM DTT, 5% glycerol, RT. To be noted: protein: recombinant; tags: N-terminal GST (pGEX-4T-1, TEV site); label: 5' 32P.

On to AUAGUGUAGU (ssRNA) [ZC3H7B motif RNA (AUAG)], for which the binding result is recorded as “binds”.
